According to patent CN108948205A (BEIJING JINDAI BIOTECHNOLOGY CO LTD, dated 2018):

Assays:
[1] = target: T1, IDH1 R132H (mutant IDH1 in glioma tissue sections) (UniProt O75874 2-414); assay: immunohistochemistry on glioma paraffin sections
T1 construct: Endogenous protein in patients' glioma paraffin sections; also called IDH1突变; IDH1 R132H突变

[2] = target: T2, IDH1野生型 (wild-type IDH1 in glioma tissue sections) (UniProt O75874 2-414); assay: immunohistochemistry on glioma paraffin sections
T2 construct: Endogenous protein in patients' glioma paraffin sections; also called IDH1 R132H焦磷酸测序野生型样本; 不携带IDH1 R132H突变的胶质瘤样本

[3] = target: T3, IDH1 R132H突变抗原多肽 (编号 U6184CB080-D); assay: SPR, Biacore 8k, peptide on CM5 chip; reference H09
T3 sequence (peptide): KPIIIGHHAYGDQYC

T2 sequence (O75874 2-414 limits assumed): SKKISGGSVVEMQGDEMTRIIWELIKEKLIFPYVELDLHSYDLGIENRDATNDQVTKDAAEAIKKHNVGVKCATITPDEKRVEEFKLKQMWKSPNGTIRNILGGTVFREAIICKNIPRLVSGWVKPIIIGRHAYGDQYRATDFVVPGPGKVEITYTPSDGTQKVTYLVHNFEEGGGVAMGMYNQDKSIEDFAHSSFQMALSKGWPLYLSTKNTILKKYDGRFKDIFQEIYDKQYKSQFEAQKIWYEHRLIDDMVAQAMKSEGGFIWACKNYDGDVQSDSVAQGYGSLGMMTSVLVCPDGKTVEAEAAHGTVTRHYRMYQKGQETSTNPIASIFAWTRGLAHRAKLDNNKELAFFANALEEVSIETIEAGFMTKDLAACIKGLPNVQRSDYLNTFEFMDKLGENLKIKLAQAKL
T1 sequence (O75874 2-414 R132H limits assumed): as the sequence (O75874 2-414 limits assumed) above, with R131H counted along it

binding result [1]: binds
binding result [2]: no binding
fold lower 亲和力平衡常数 (KD) against H09 [3]: 10 fold
B1: 10G5-1单克隆抗体 (anti-IDH1 R132H monoclonal antibody secreted by hybridoma 10G5-1, CGMCC No.15783) (antibody, V domains shown)
VH: QVQLQQPGTELVKPGASVHLSCKASGYTFTTYWMHWVKQRPGQGLEWIGDINPSNGETYYNEKFRNKATLTVDKSSRTAYMHLSSLSSEDSAVYYCARGFKDYWGQGTTLTVSS
VL: DVLMTQTPLSLPVSLGDQASISCRSSQTILYSDGVTYLEWYLQKPGQSPKLLIYKVSSRFSGVPDRFSGSGSGTDFTLKISRVVAEDLGIYYCFQGSHVPFTFGSGTKLEIK
notes: Mouse (BALB/c) hybridoma antibody purified on protein A; also called 10G5-1抗体; 1OG5-1抗体
